The values that follow come from patent publication US20160311886A1, “Constructs Binding to Phosphatidylserine and Their Use in Disease Treatment and Imaging” (Board of Regents, The University of Texas System, priority 2005, published 2016).

Series [1] deals with drug-resistant breast tumors. The series is described as follows: 3G4 and cisplatin against drug-resistant breast tumors. The conditions noted are these: treated after day 20. Format: in vivo, mouse. The text has this:
Mice were inoculated with drug-resistant breast tumors and treated after day 20.

For series [2], the system named is orthotopic MDA-MB-435 breast tumors. Description: 3G4 localization to tumor blood vessels in vivo. Further details: species or system mouse. The text has this:
Frozen sections of tumor and normal tissues were stained for the presence of mouse immunoglobulin. SCID mice that had been confirmed as having no detectable circulatory immunoglobulin were used to avoid background staining. In these studies, sections were counterstained with anti-mouse CD31 to detect vascular endothelium and the images were merged. […] Coincident staining appeared yellow, unless dominated by a particularly intense green or red fluorescence in that region. The antigen specificity of vessel localization was confirmed by the lack of endothelial staining in tumors from mice injected with the isotype-matched control antibodies, BBG3.

The subject of the next series is MDA-MB-435 breast tumors. The series is described as follows: 3G4 and chimeric 3G4 tumor treatment. Format: in vivo, mouse. The conditions noted are these: MD-MBA-435s; IP 800 μg day 15, 200 μg every two to three days, 400 μg day 35. The protocol: Tumors were also established using MD-MBA-435s cells and treated as described above. […] The treatment of large L540 tumors, MDA-MB-231 and MD-MBA-435s tumor cells for 60 days was also effective. The antibodies caused tumor vascular injury, thrombosis and necrosis and retarded tumor growth, with no evidence of toxicity.
MD-MBA-435s lucerifase cells were obtained from Dr. Angels Sierra Jimenez, Barcelona, Spain and were grown in 10% DMEM. Mice were injected with tumor cells as described as above, and at 2 weeks post injection, the tumors were measured and the volume recorded. […] Treatment was initiated by IP injection (800 μg) at day 15 and continued with injections of 200 μg every two to three days until the final injection of 400 μg at day 35. Tumor volumes and mouse body weights were measured on injection days. Mice were sacrificed and perfused with saline for 12 minutes. The organs and tumor were removed, snap-frozen in liquid nitrogen and the tumor sectioned for immunohistochemistical analysis.
Groups of 8-10 female SCID mice were injected subcutaneously with 2×10^7 L540 cells or orthotopically with 1×10^7 MDA-MB-435 or MDA-MB-231 cells. BALB/c mice were injected subcutaneously with 1×10^6 Meth A cells. […] Animals were monitored three times a week for tumor size and body weight. […]

The test system of series [3] is Tissue Factor (TF)-induced coagulation.
The subject of the next series is hβ2GPI domains. Description: ELISA on recombinant hβ2GPI domain constructs. Format: binding, human. To be noted: constructs I-V, II-V, III-V, IV-V. The protocol: (§1) The assay was performed as described above with the following modifications. hβ2GPI, nicked hβ2GPI, or recombinant hβ2GPI peptides were coated on 96-well Immunlon 2HB microtiter plates overnight at a concentration of 10 μg/ml. Plates were then blocked in 1% OVA for 1 hr. at room temperature. […] Plates were incubated for 1 hr. at 37° C. and antibody binding was detected. All ELISA studies were performed at least three times.
β2GPI has five domains, of which the fifth domain is responsible for binding to anionic phospholipids. […] These domain constructs were made by serial truncations from the N-terminus, and so lack each of the N-terminal domains in turn, as follows: recombinant full-length hβ2GPI contains domains I-V; hβ2GPI from which domain I has been deleted contains domains II-V; hβ2GPI from which domains I and II have been deleted contains domains III-V; hβ2GPI from which domains I, II and III have been deleted contains domains IV-V; and hββ2GPI from which domains I, II, III and IV have been deleted contains domain V only.
A general note: An ELISA detects its analyte on a solid surface through an enzyme-linked reagent.

The next series concerns human CMV AD169. Description: CMV-GFP spread by fluorescent microscopy.
For series [4] the following is noted: mouse, in vivo, iv.
For another series, the target named is T1, human β2GPI (Homo sapiens, UniProt P02749).
T1 construct: Human β2GPI (hβ2GP1) was purified from human plasma essentially as described previously; from tissue; host or cells: pooled human plasma
T1 sequence (P02749 20-345): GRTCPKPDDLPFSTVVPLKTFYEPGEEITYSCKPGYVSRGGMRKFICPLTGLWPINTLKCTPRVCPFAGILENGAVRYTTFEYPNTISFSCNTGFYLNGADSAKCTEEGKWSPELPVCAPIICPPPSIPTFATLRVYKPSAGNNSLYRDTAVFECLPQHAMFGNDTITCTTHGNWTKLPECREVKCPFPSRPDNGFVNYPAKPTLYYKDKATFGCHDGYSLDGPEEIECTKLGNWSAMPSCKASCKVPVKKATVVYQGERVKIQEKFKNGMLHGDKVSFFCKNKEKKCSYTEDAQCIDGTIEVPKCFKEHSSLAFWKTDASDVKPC
Description: Anti-hβ2GPI ELISA. Format: binding. The protocol: as §1

The test system of the next series is bEnd.3 cells. Description: Growth of bEnd.3 cells in vitro. Format: cell-based, mouse. The conditions noted are these: 20 μg to 40 μg total IgG per well; 48 and 96 hours. The procedure:
20% DMEM alone (control) or 20% DMEM containing the antibodies (20 μg to 40 μg total IgG per well) was added 4 hours after seeding. Each clone was tested on two separate plates in triplicates. Cells were detached 48 and 96 hours later, the cell count was determined in each well and the average cell number per treatment was calculated.

B1: 3G4: Mouse IgG3 kappa monoclonal antibody to PS and anionic phospholipids; binding mediated by β2-glycoprotein I (antibody, listed as Mus musculus)
VH: MGWTWIFILILSVTTGVHSEVQLQQSGPELEKPGASVKLSCKASGYSFTGYNMNWVKQSHGKSLEWIGHIDPYYGDTSYNQKFRGKATLTVDKSSSTAYMQLKSLTSEDSAVYYCVKGGYYGHWYFDVWGAGTTVTVSSATTTAPSVYPLVP
VL: MDMRAPAQILGFLLLLFPGTRCDIQMTQSPSSLSASLGERVSLTCRASQDIGSSLNWLQQGPDGTIKRLIYATSSLDSGVPKRFSGSRSGSDYSLTISSLESEDFVDYYCLQYVSSPPTFGAGTKLELKRADAAPTVFIFGRIP
B1: in series [1], the anti-tumor response entry is listed as “tumor growth was slowed”. Moreover, the “tumor blood vessels with localized antibody” value in [2] (after i.p. or i.v. injection) turned out to be 40±10%. Besides, the “time to maximal localization to tumor vessels” value in [2] (i.p. injection) was at most 6 h. The “time to maximal staining of tumor vessels” value in [2] (i.v. injection) was at most 1 h. In addition, in the series with MDA-MB-435 breast tumors, the “tumor growth vs control” value was “effectively retarded tumor growth”. Besides, the “inhibition of TF-induced coagulation” value in series [3] is “weak inhibition”. For the same molecule, the β2GPI domain recognized entry in the series with hβ2GPI domains is “binds to β2GPI at domain II”. Moreover, the cell-to-cell spread entry in the series with human CMV AD169 (100 μg/ml and 50 μg/ml) is reported as “complete inhibition of cell-to-cell spread”. Besides, the “entry of the virus into the cells” value in the series with human CMV AD169 (day 3, 50 and 100 μg/ml) was “does not appear to significantly inhibit the entry of the virus”. For the same molecule, in the series with human CMV AD169 (day 9, 100 μg/ml and 50 μg/ml, control wells approximately 80% infected), the “viral spread in monolayer” value is listed as “restricted to the original singly-infected cell”. Besides, in series [4], the Volume of distribution was 0.1 L/kg, the “half-life in the α-phase of clearance” value stood at 3 h and the “half-life in the β-phase of clearance” value came out at 120 h. The “activation of endothelial cells” value in the series with HUVECs is “does not activate resting HUVECs or HUVECs pre-activated with low concentrations of LPS”. In addition, the “binding to hβ2GPI coated plate” value with human β2GPI is recorded as “bound strongly”. In addition, the “inhibition of growth of bEnd.3 cells” value in the series with bEnd.3 cells was “particularly effective”.
